# From US20070123452A1, “Method of selecting novel immunosuppressant” (Astellas Pharma Inc., priority 2002, published 2007)
# B1: HDAC4 dominant negative variant (H863L): HDAC4 variant with H863L mutation, amino acid sequence SEQ ID NO:6, expressed from plasmid (protein, listed as Homo sapiens)
# chain: MSSQSHPDGLSGRDQPVELLNPARVNHMPSTVDVATALPLQVAPSAVPMDLRLDHQFSLPVAEPALREQQLQQELLALKQKQQIQRQILIAEFQRQHEQLSRQHEAQLHEHIKQQQEMLAMKHQQELLEHQRKLERHRQEQELEKQHREQKLQQLKNKEKGKESAVASTEVKMKLQEFVLNKKKALAHRNLNHCISSDPRYWYGKTQHSSLDQSSPPQSGVSTSYNHPVLGMYDAKDDFPLRKTASEPNLKLRSRLKQKVAERRSSPLLRRKDGPVVTALKKRPLDVTDSACSSAPGSGPSSPNNSSGSVSAENGIAPAVPSIPAETSLAHRLVAREGSAAPLPLYTSPSLPNITLGLPATGPSAGTAGQQDTERLTLPALQQRLSLFPGTHLTPYLSTSPLERDGGAAHSPLLQHMVLLEQPPAQAPLVTGLGALPLHAQSLVGADRVSPSIHKLRQHRPLGRTQSAPLPQNAQALQHLVIQQQHQQFLEKHKQQFQQQQLQMNKIIPKPSEPARQPESHPEETEEELREHQALLDEPYLDRLPGQKEAHAQAGVQVKQEPIESDEEEAEPPREVEPGQRQPSEQELLFRQQALLLEQQRIHQLRNYQASMEAAGIPVSFGGHRPLSRAQSSPASATFPVSVQEPPTKPRFTTGLVYDTLMLKHQCTCGSSSSHPEHAGRIQSIWSRLQETGLRGKCECIRGRKATLEELQTVHSEAHTLLYGTNPLNRQKLDSKKLLGSLASVFVRLPCGGVGVDSDTIWNEVHSAGAARLAVGCVVELVFKVATGELKNGFAVVRPPGHHAEESTPMGFCYFNSVAVAAKLLQQRLSVSKILIVDWDVHHGNGTQQAFYSDPSVLYMSLLRYDDGNFFPGSGAPDEVGTGPGVGFNVNMAFTGGLDPPMGDAEYLAAFRTVVMPIASEFAPDVVLVSSGFDAVEGHPTPLGGYNLSARCFGYLTKQLMGLAGGRIVLALEGGHDLTAICDASEACVSALLGNELDPLPEKVLQQRPNANAVRSMEKVMEIHSKYWRCLQRTTSTAGRSLIEAQTCENEEAETVTAMASLSVGVKPAEKRPDEEPMEEEPPL
# modifications: Dominant negative mutant (H863L) of human histone deacetylase-4 (HDAC4) gene
# Tests used:
# [1] = tested on: IL-2 transcription (human IL-2 promoter); experiment: IL-2 reporter gene assay in Jurkat cells; format: cell-based
# Procedure: To 1 μg of the plasmid pGL3 IL2 Pro43, which has a human IL-2 promoter sequence (the −674 to +54 region in the vicinity of the transcription initiation site) upstream of the firefly luciferase gene, and 6 μg of pRL-TK (Promega), the plasmids for the expression of wild-type HDAC4 or each of HDAC4 dominant negative variants (H802K, H803L, H863L) prepared in Example 3 was mixed in various ratios (1, 3 and 10 μg), and 1×10^7 Jurkat cells (ATCC, TIB-152) were transformed by the electroporation method (BIO-RAD, Gene Pulser II, voltage 300 V, charge 975 μF, 400 μL).
# After transformation, 2.5 mL of RPMI 1640 containing 10% FBS (MOREGATE) (10% FBS RPMI 1640) was added, and this mixture was dispensed to a 96-well white plate in a ratio of 50 μL/well. After cultivation under conditions of 37° C., 5% CO2 and saturated humidity for 10 hours, a liquid mixture of Phorbol 12-Myristate 13-Acetate (PMA, SIGMA), Ionomycin (SIGMA) and Anti-CD28 antibody (Pharmingen) in 10% FBS RPMI 1640 was added at 50 μL/well (the final concentrations were 50 ng/mL, 1 μg/mL and 75 ng/mL, respectively) to stimulate the Jurkat cells. After cultivation under conditions of 37° C., 5% CO2 and saturated humidity for 12 hours, luciferase activity in the cells was measured according to the manual of the Bright-Glo Luciferase Assay System (Promega) using a multi-label counter (1420 MULTILABEL COUNTER ARVO SX, WALLAC).
# 1×10^7 Jurkat cells (ATCC, TIB-152) were transformed with 10 μg of a plasmid for the expression of various HDACs or HDAC variants by the electroporation method (BIO-RAD, Gene Pulser II, voltage 300 V, charge 975 μF, 400 μL). […] After cultivation under conditions of 37° C., 5% CO2 and saturated humidity for 12 hours, luciferase activity in cells were measured according to the manual of the Bright-Glo Luciferase Assay System (Promega), and IL-2 transcriptional activity was measured using a multi-label counter (1420 MULTILABEL COUNTER ARVO SX, WALLAC).
# (§1) A mixture of four kinds of HDAC4-targeted siRNA, i.e., siGENE HDAC4 SMARTpool (manufactured by Dharmacon Inc., marketed by B-Bridge international Inc., code number M-003497-00-05), or Non-specific Control Duplex IX (47% GC content) (manufactured by Dharmacon Inc., marketed by B-Bride international Inc., code number D-001206-09-20), and pGL3 IL2 Pro43 were transfected to Jurkat cells by the electroporation method using the same conditions as those mentioned above, and IL-2 transcriptional activity was measured. Likewise, siGENE HDAC4 SMARTpool or Non-specific Control Duplex IX, and pGL3-HSI-IE Pro were transfected to HEL cells, and GATA-1 transcriptional activity was measured. […]
# [2] = tested on: GATA-1 transcription (human GATA-1 promoter); experiment: GATA-1 reporter gene assay in HEL cells; format: cell-based; details: 10 μg expression plasmid
# Procedure: Using 15 μg of pGL3-HSI-IE Pro and 10 μg of a plasmid for the expression of various HDACs or HDAC variants, 8.75×10^6 HEL cells (accession number JCRB0062, JCRB) were transformed by the electroporation method (BIO-RAD, Gene Pulser II, voltage 1750 V, charge 10 μF, 365 μL). After transformation, 2 mL of 10% FBS RPMI 1640 was added, and this mixture was dispensed to a 96-well white plate in a ratio of 50 μL/well. After cultivation under conditions of 37° C., 5% CO2 and saturated humidity for 3 hours, 10% FBS RPMI 1640 medium was added at 50 μL/well. After cultivation under conditions of 37° C., 5% CO2 and saturated humidity for 8 hours, luciferase activity in cells were measured according to the manual of the Bright-Glo Luciferase Assay System, and GATA-1 transcriptional activity was measured using a multi-label counter.
# as §1, with “measured.” for “measured. Likewise, siGENE HDAC4 SMARTpool or Non-specific Control Duplex IX, and pGL3-HSI-IE Pro were transfected to HEL cells, and GATA-1 transcriptional activity was measured.”
# [3] = tested on: N-CoR and HDAC3; experiment: Complex forming ability, anti-Flag purification and Western blotting; format: binding, human; details: expressed in PEAK Rapid cells; compared to wild-type HDAC4
# [4] = tested on: histone; experiment: HDAC activity with [3H]-labeled acetylated histone as a substrate; format: biochemical, human; details: expressed in 293T cells, crudely purified; compared to wild-type HDAC4
# Procedure: 7 μg of a plasmid for the expression of wild-type HDAC4 and HDAC4 dominant negative variants (H802K, H803L, H863L) was transfected to 293T cells by the calcium phosphate method; 48 hours later, whole cell lysate (cells were disrupted in 25 mM Tris, pH 7.4, 150 mM NaCl, 1 mM CaCl2, 1% Triton X-100, and cell debris was removed by centrifugation) was crudely purified using an anti-Flag antibody column (SIGMA, anti-Flag M2-agarose) (washed with TBS, then eluted with 0.1M Glysine-HCl, pH 3.5), and used for the measurement of HDAC activity. The reaction substrate used was a [^3H]-labeled acetylated histone prepared by cultivating Jurkat cells (2×10^8 cells) in 40 mL of an RPMI (SIGMA) medium containing 300 MBq [^3H] sodium acetate (NENTM Life Science Products, Inc.) for 2 hours, disrupting the cells in Lysis buffer, pH 6.5 (10 mM Tris-HCl, 50 mM Sodium Hydrogen sulfate, 1% Triton X-100, 10 mM MgCl2-6H2O, 8.6% Sucrose), washing the cells with Wash buffer (10 mM Tris-HCl, 13 mM EDTA), and then adding 0.4N H2SO4.
molecule,measurement,setting,value
B1,IL-2 transcriptional activity (luciferase),"[1]; Jurkat cells stimulated with PMA, Ionomycin, Anti-CD28 antibody, expression plasmid 1, 3 and 10 μg",IL-2 transcription suppression depending on the expression level
same,IL-2 transcriptional activity (luciferase),"[1]; Jurkat cells, 10 μg expression plasmid, compared with HDAC1 and HDAC3 variants",IL-2 transcription suppression was observed
same,GATA-1 transcriptional activity (luciferase),[2],GATA-1 transcription suppression was not observed
same,HDAC3 and N-CoR in the crudely purified fraction (complex forming ability),[3],contained almost no HDAC3 or N-COR
same,HDAC activity with histone as a substrate,[4],decreased HDAC activity compared to wild-type HDAC4
